From patent publication US20250171550A1 (NINGBO T MAXIMUM BIOPHARMACEUTICALS, published 2025)

T1: BCMA-Fc recombinant protein (human, UniProt Q02223 1-54)
T1 construct: also called human BCMA protein; BCMA protein; not shown: Fc part
T1 sequence (looked up): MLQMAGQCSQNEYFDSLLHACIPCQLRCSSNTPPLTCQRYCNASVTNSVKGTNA

T2: Biotin-BCMA-Fc (human, UniProt Q02223 1-54, labelled with NHS-biotin, sites not stated)
T2 construct: also called Biotin-BCMA-Fc protein; labeled BCMA-Fc recombinant protein; not shown: Fc part
T2 sequence (looked up): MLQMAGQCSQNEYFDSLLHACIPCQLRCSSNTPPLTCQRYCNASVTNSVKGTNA


Legend:
[1] = molecular target: T1, BCMA-Fc recombinant protein; experiment: SPR, Biacore 8K, CM5 chip; antibody captured by anti-human IgG (Fc), human BCMA protein as analyte (paragraph 147 describes the reverse format)
Experimental: The mouse anti-human IgG (Fc) antibody was diluted with the immobilization reagent (sodium acetate, pH 5.0): 950 μL of the immobilization reagent was added to 50 μL of the mouse anti-human IgG (Fc) antibody. The dilution was used for immobilization in eight channels. First, the surface of the CM5 chip was activated for 360 s with EDC and NHS at a flow rate of 10 μL/min. Then, the mouse anti-human IgG (Fc) antibody was injected into the channels (channels 1-8, Fc1,2) at a flow rate of 10 μL/min for about 360 s, with the level of immobilization at about 7000 to 14,000 RU. Finally, the chip was blocked with ethanolamine at 10 μL/min for 420 s.
Human BCMA protein was diluted 2-fold with the running reagent. The diluted human BCMA protein was injected into the experimental channels and the reference channels in sequence at a flow rate of 30 μL/min, and corresponding periods of association and dissociation were allowed. The association and dissociation steps were all performed in the running reagent. After each concentration analysis, the chip needed to be regenerated with magnesium chloride at a flow rate of 20 μL/min for 30 s to wash away the ligand and undissociated analyte. For the next concentration analysis, the experimental channels needed to recapture the same amount of ligand.
A KD value was calculated for each sample using Biacore 8K analysis software Biacore Insight Evaluation Software. The reference channels (Fc1) were used for background subtraction.

Biotin-BCMA-Fc = molecular target: T2, Biotin-BCMA-Fc; experiment: flow cytometry of the induced yeast single clone displaying the VHH, Biotin-BCMA-Fc and PE-streptavidin
Experimental: After two rounds of magnetic sorting were repeated, a part of the yeast was cultured and subjected to induced expression and flow cytometry assays. Another part was directly applied onto a PAD plate, and single clones were then picked and cultured, and were incubated simultaneously with Biotin-Fc and Biotin-BCMA-Fc 24 h after induced expression, with PE-Streptavidin as a secondary antibody; after incubation, flow cytometry assays were performed, and the results are shown in FIG. 3, where 14 clones are shown to bind to Biotin-BCMA-Fc.

| Binder | Kd [1] | koff [1] | kon [1] | percent of cells in gate R3 (Biotin-BCMA-Fc) | binding result (Biotin-BCMA-Fc) |
| --- | --- | --- | --- | --- | --- |
| humanized single-domain antibody hu4811 (Fc fusion, Humanized on DP-47 frameworks, original FR2 kept; Fusion partner inferred; not shown: fusion partner) QVQLVESGGGLVQPGGSLRLSCAASGHTPSNYAMGWFRQTPGKEREFVAAITWSAVTRDDAIPYYADSVKGRFTISRDNSKNTLYLQMNSLRAEDTAVYYCAVDASLVMTPTPRYWGQGTLVTVSS | 9.71 nM | 0.0698 s⁻¹ | 7.19e+06 M⁻¹ s⁻¹ |  |  |
| humanized single-domain antibody hu4811FGLF (Fc fusion, FR1, FR3 and FR4 replaced and T45A, E49G, R50L in FR2; Fusion partner inferred; not shown: fusion partner) QVQLVESGGGLVQPGGSLRLSCAASGHTPSNYAMGWFRQAPGKGLEFVAAITWSAVTRDDAIPYYADSVKGRFTISRDNSKNTLYLQMNSLRAEDTAVYYCAVDASLVMTPTPRYWGQGTLVTVSS | 10.2 nM | 0.126 s⁻¹ | 1.24e+07 M⁻¹ s⁻¹ |  |  |
| single-domain antibody 48-11 (Fc fusion, Supernatant was used in flow cytometry, Protein A purified material in Biacore; not shown: human IgG1 Fc, ligated in series to the VHH (vector Lenti-hIgG1-Fc2)) QVQLVESGGGLVQAGGSLRLSCAASGHTPSNYAMGWFRQTPGKEREFVAAITWSAVTRDDAIPYYRTSVKGRFTISRDNAKNTVYLQMNSLKPEDTAVYYCAVDASLVMTPTPRYWGQGTQVTVSS | 0.0379 nM | 0.0013 s⁻¹ | 3.42e+07 M⁻¹ s⁻¹ | 98.4% |  |
| C6 (Fc fusion, also called single-domain antibody C6) VHH-Fc fusion chain: QVQLVESGGGLVETGSSLRLSCKSSGHSFSDYSLAWFRQAPGKEREFVAAITWSDVPRDDAVTYYRVDVKGRFTISRDNAKNTVYLQMNSLKPEDTAVYYCAVDASLVMTLTPRYWGQGTQVTVSS |  |  |  | 93.3% |  |
| humanized single-domain antibody huD1 (Fc fusion, Humanized on DP-47 frameworks, original FR2 kept; not shown: fusion partner) QVQLVESGGGLVQPGGSLRLSCAASGRTSTTSVMGWFRQAPGKERRFVAAITRTDDRQNDGITYYADSVKGRFTISRDNSKNTLYLQMNSLRAEDTAVYYCAAHTSLVFTPDPRYWGQGTLVTVSS | 1.9 nM | 0.0141 s⁻¹ | 7.41e+06 M⁻¹ s⁻¹ |  |  |
| humanized single-domain antibody huD1FGLF (Fc fusion, FR1, FR3 and FR4 replaced and FR2 mutated; Fusion partner inferred; also called huDIFGLF; not shown: fusion partner) QVQLVESGGGLVQPGGSLRLSCAASGRTSTTSVMGWFRQAPGKGLEFVAAITRTDDRQNDGITYYADSVKGRFTISRDNSKNTLYLQMNSLRAEDTAVYYCAAHTSLVFTPDPRYWGQGTLVTVSS | 9.25 nM | 0.0579 s⁻¹ | 6.26e+06 M⁻¹ s⁻¹ |  |  |
| single-domain antibody D1 (Fc fusion, not shown: human IgG1 Fc, ligated in series to the VHH (vector Lenti-hIgG1-Fc2)) QVQLVESGGGLVQAGGSLRLSCVASGRTSTTSVMGWFRQAPGKERRFVAAITRTDDRQNDGITYYGESVKGRFTISRDNDKNTVYLQMNSLKPEDTAVYYCAAHTSLVFTPDPRYWGQGTPVTVPS | 0.243 nM | 0.00212 s⁻¹ | 8.73e+06 M⁻¹ s⁻¹ |  | binds |
| C2 (Fc fusion, also called single-domain antibody C2) VHH-Fc fusion chain: QVQLVESGGGLVQAGGSLRLSCVASGLTFSNYAMGWFRQGPGKDRDFVAAITRSDERQNDGVTYYRVSVKGRFTISRDNANDTVYLQMNSLKPEDTAIYYCAADPSLVFSPTLRYWGQGTLVTVSS |  |  |  | 95.3% |  |
| D10 (Fc fusion, also called single-domain antibody D10) VHH-Fc fusion chain: QVQLVESGGGLVQPGGSLRLSCAASGFSLNNYVIGWFRQAPGKDRDFVAAITRSDERQNDGVTYYRVSVKGRFTISRDNANDTVYLQMNSLKPEDTAIYYCAADPSLVFSPTPRYWGQGTLVTVSS |  |  |  | 99.8% |  |
